According to patent US20090226415A1, “MODIFIED TRIDEGINS, PRODUCTION AND USE THEREOF AS TRANSGLUTAMINASE INHIBITORS” (priority 2001, published 2009):
Numbering of substitutions follows the chain as printed. Numbers in names are those of the source. Where two headings read alike, the source gives them in different places.

Columns and labels:
factor XIIIa [1] = target: T1, factor XIIIa (Homo sapiens, UniProt P00488); conditions: Table 1, published inhibitors of factor XIIIa; read-out: Affinity (IC50); cited from earlier work
T1 sequence (P00488 39-732 limits assumed): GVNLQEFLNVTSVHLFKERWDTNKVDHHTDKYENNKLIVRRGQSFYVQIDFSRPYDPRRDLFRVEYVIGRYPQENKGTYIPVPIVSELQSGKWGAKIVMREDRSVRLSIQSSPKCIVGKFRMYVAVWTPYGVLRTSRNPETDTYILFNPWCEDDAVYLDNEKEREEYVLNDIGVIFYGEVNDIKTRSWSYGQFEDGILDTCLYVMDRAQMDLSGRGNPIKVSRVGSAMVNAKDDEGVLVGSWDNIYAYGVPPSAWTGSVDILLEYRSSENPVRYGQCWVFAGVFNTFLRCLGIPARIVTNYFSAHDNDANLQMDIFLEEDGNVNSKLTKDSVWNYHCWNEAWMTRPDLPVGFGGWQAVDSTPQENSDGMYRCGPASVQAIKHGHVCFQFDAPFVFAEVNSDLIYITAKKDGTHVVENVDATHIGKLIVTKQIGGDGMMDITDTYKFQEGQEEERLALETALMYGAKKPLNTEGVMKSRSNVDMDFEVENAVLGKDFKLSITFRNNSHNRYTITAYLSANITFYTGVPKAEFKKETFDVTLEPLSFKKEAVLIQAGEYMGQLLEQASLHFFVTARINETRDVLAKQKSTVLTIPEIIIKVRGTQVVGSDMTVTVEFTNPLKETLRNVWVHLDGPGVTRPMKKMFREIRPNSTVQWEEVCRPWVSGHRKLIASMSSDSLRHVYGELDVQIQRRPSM

whole citrate blood = experiment: Thrombelastography (ROTEG) of coagulation and fibrinolysis in whole citrate blood; parameters: species or system human
Text: To do this, what are termed thrombelasto-grams were plotted. Thrombelastography is a current method for measuring coagulation and fibrinolysis. The method measures the change in the viscosity of the blood by the change in the resistance to rotation of a plunger which is present in the blood (Calatzis et al., 2000). […] Thrombelastograms quantify important parameters of haemostasis: • clotting time (time between the initiation of coagulation and the beginning of a measurable change in the viscosity of the blood, CT) • stability of the thrombus (maximum amplitude, maximum clot firmness, MCF) • fibrinolysis time (time between the beginning of a measurable change in blood viscosity and achievement of the starting value prior to the clotting, lysis time, LT).
The ROTEG® instrument supplied by Pentapharm GmbH, Munich, was used for the measurements which are shown. FIGS. 5 and 6 show the thrombelastograms of whole citrate blood after the addition of Ca^2+ (Starteg reagent, from Pentapharm GmbH) and thromboplastin phospholipid (Integ reagent, from Pentapharm GmbH). These reagents are used to induce coagulation. […] This is made clear by […]

[2] = Analytical gel filtration run for multimeric, high molecular weight aggregates; assay type: physicochemical; conditions: 20 mM sodium phosphate, pH 8.0, 300 mM NaCl
Text: These modified tridegins were produced by site-directed mutagenesis of the cysteines present in the wild-type tridegin. The aim of this mutagenesis was to replace, in a step-wise manner, the cysteine residues which are suitable for forming intermolecular disulfide bridges. The tendency to form disulfide bridges, and the aggregation of the end product which accompanies it, were detected by carrying out appropriate chromatographic analyses of the original transglutaminase inhibitor (SEQ ID No. 1) in the presence or absence of reducing agents (e.g. mercaptoethanol and DTT). Thus, in one gel filtration run (on an Amersham-Pharmacia HiPrep 26/60 Sephacryl S200 HR column; 20 mM sodium phosphate, pH 8.0, 300 mM NaCl; 1 ml/min) the purified, recombinant tridegin polypeptide had approximately an 80% content of multimeric, high molecular weight aggregates.

factor XIIIa [3] = target: T1, factor XIIIa; experiment: biochemical; assay type: biochemical; conditions: for Relative inhibitory effect (%): final variant concentration 5.45 μM
Method: The assay is based on factor XIII being activated to form factor XIIIa by thrombin which is present in the reagents. Factor XIIIa links a specific peptide substrate to glycine ethyl ester with ammonium ions being released. The latter are determined in an enzyme reaction which proceeds in parallel. The extinction at 340 nm was used to measure the decrease in NADH. For the measurement, peptides were present in 50% acetonitrile in a stock concentration of 5 mM. The NADH and detection reagents which were supplied by the manufacturer were dissolved in 3 ml of water, with the activator reagent subsequently being dissolved in 3 ml of NADH reagent. For use, the activator and detection reagents were mixed in a ratio of 1:1. In order to carry out the measurement in microtiter plate format, 100 μl of sample (inhibitor or control buffer), 25 μl of factor XIII (10 U/ml) and 150 μl of working reagent were mixed. The measurement was carried out continuously for 20 min at 340 nm, and at 37° C., in a microtiter plate photometer. For the evaluation, the differences in the values measured after 16 and 20 min were compared.
The relative inhibitory effect (%) was determined at a final variant concentration of 5.45 μM. The inhibitory effect of the recombinant tridegin polypeptide was normalized to 100% (at 5.45 μM).
The above-described Berichrom® assay was used to determine the relative inhibitory effect (%) at a final concentration of the peptides of 7.27 μM. The inhibitory effect of the recombinant tridegin polypeptide, at a final concentration of 7.27 μM, was normalized to 100%.
The relative inhibitory effect (%) was determined at a final variant concentration of 5.45 μM. The inhibitory effect of the recombinant wild-type tridegin poly-peptide (at 5.45 μM) was normalized to 100%. The oligonucleotides which were used to produce the abovementioned variants are also specified in the table.

[4] = Table 4, Cys variants, wild-type tridegin polypeptide normalized to 100%

## C/C=C/C/C=C/CCC(=O)[C@H]1O[C@H]1C(N)=O [Cerulenin]
Factor XIIIa [1]
  IC50: 29 µM

## C[C@@H]1CCC/C=C\C(=O)Cc2cc(O)cc(O)c2C(=O)O1 [ZG-1400]
Factor XIIIa [1]
  IC50: 5.7 µM

B1: SEQ ID No. 1: recombinant wild-type tridegin polypeptide expressed in and purified from Escherichia coli (protein)
chain: MKLLPCKEWHQGIPNPRCWCGADLECAQDQYCAFIPQCRPRSELIKPMDDIYQRPVEFPNLPLKPREE
Whole citrate blood; FIG. 5 A and B, 190 seconds in the absence of inhibitor
  clotting time (CT): 380 s
Whole citrate blood; lower amplitude and increased rate of fibrinolysis
  effect on fibrinolysis brought about by tPA and urokinase: accelerate and improve the fibrinolysis
[2]; Sephacryl S200 HR, no reducing agent
  content of multimeric, high molecular weight aggregates: ~80%
[2]; reducing conditions: 1.5 mM DTT
  content of the aggregates: < 20%
Factor XIIIa [3]; Table 2, recombinant tridegin polypeptide normalized to 100%
  Relative inhibitory effect (%): 100%
Factor XIIIa [3]; [4]
  Relative inhibitory effect (%): 100%
Factor XIIIa [3]; purified recombinant tridegin polypeptide from Escherichia coli, FIG. 3
  IC50: 2 to 4 µM

B2: C32A: tridegin modified by replacement of a cysteine residue, expressed in Escherichia coli (protein)
chain: B1 chain with C32A
Factor XIIIa [3]; [4]
  Relative inhibitory effect (%): 86%

B3: C26A: tridegin modified by replacement of a cysteine residue, expressed in Escherichia coli (protein)
chain: B1 chain with C26A
Factor XIIIa [3]; [4]
  Relative inhibitory effect (%): 82%

B4: C20A: tridegin modified by replacement of a cysteine residue, expressed in Escherichia coli (protein)
chain: B1 chain with C20A
Factor XIIIa [3]; [4]
  Relative inhibitory effect (%): 63%

B5: C26A; +C38A: tridegin modified by replacement of two cysteine residues, expressed in Escherichia coli (protein)
chain: B1 chain with C26A, C38A
Factor XIIIa [3]; [4]
  Relative inhibitory effect (%): 80%
